Measurements: patent publication US20240261333A1 (published 2024)

Assays:
Assay in all cases: co-IP with mouse anti-FLAG from lysate of cells overexpressing N-FLAG B3GNT2, then mass spectrometry
[1] = biological target: T1, SUPT16H (human, UniProt Q9Y5B9 2-1047)
T1 construct: Identified by mass spectrometry in the co-IP; also called NP_009123.1 (+1)
Experimental: (§1) Cells were plated in 10-cm cell culture dishes and grown to 60-80% confluency. For each condition, two biological replicates were harvested for co-IP. Cells were washed with PBS and 4 mL of lysis buffer (20 mM HEPES, 1% Triton X-100, 150 mM NaCl, 1 mM EDTA, and 10% glycerol) containing protease inhibitor cocktail was added. Cells were scraped and lysate was incubated at 4° C. under rotary agitation for 1 h. Lysate was centrifuged at 14,000×g for 10 min at 4° C. Supernatant was transferred to a new tube and an aliquot was taken as the input. […] For Western blots, 10 μg/mL Chicken Anti-FLAG (Aves labs ET-DY100) and IgY control (R&D Systems AB-101-C) antibodies were biotinylated (Thermo Fisher Scientific 90407) and added to the respective conditions. Lysates with antibodies were incubated at 4° C. under rotary agitation overnight. For each mL of lysate, 50 μL of Pierce Protein A/G Magnetic Beads (Mass spectrometry; Thermo Fisher Scientific 88803) or Pierce Streptavidin Magnetic Beads (Western blot; Thermo Fisher Scientific 88817) was washed twice with lysis buffer. Lysates with antibodies were added to the beads and incubated at 4° C. under rotary agitation for 4 h. Beads were washed with lysis buffer 3 times and resuspended in lysis buffer for storage.
(§2) Magnetic beads were resuspended in 100 mM Tris pH 7.8, reduced, alkylated and digested with trypsin at 37° ° C. overnight. This solution was subjected to solid phase extraction to concentrate the peptides and remove unwanted reagents followed by injection onto a Shimadzu HPLC with fraction collector. Eight fractions were collected and after concentration were injected on a Waters NanoAcquity HPLC equipped with a self-packed Aeris 3 μm C18 analytical column 0.075 mm by 20 cm, (Phenomenex). Peptides were eluted using standard reverse-phase gradients. The effluent from the column was analyzed using a Thermo Orbitrap Elite mass spectrometer (nanospray configuration) operated in a data dependent manner for 54 minutes. The resulting fragmentation spectra were correlated against the known database using Proteome Discover 1.4 (Thermo Fisher Scientific).

[2] = biological target: T2, MAGED2 (human, UniProt Q9UNF1 2-606)
T2 construct: Identified by mass spectrometry in the co-IP; also called NP_803182.1
T2 sequence (looked up): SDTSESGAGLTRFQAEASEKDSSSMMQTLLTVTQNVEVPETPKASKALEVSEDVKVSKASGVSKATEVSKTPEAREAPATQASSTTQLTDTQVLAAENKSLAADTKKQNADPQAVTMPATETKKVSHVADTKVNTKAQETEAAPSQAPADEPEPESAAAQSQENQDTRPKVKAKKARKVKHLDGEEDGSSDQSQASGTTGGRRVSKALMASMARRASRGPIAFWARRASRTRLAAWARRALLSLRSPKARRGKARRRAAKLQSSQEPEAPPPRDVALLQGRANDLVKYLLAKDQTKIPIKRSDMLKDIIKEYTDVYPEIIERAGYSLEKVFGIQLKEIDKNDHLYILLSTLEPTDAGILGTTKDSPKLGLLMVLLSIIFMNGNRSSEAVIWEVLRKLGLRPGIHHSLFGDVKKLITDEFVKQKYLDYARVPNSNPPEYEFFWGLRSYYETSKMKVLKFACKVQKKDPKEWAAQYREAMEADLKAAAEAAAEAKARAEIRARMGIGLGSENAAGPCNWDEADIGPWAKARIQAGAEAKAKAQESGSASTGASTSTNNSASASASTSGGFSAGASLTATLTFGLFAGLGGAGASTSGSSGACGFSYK
Experimental: as §1, §2

[3] = biological target: T3, EIF3I (human, UniProt Q13347 1-325)
T3 construct: Identified by mass spectrometry in the co-IP; also called NP_003748.1
Experimental: as §1, §2

[4] = biological target: T4, CPSF6 (human, UniProt Q16630-2 1-588, limits assumed)
T4 construct: Identified by mass spectrometry in the co-IP; also called NP_001287876.1 (+3)
T4 sequence (looked up): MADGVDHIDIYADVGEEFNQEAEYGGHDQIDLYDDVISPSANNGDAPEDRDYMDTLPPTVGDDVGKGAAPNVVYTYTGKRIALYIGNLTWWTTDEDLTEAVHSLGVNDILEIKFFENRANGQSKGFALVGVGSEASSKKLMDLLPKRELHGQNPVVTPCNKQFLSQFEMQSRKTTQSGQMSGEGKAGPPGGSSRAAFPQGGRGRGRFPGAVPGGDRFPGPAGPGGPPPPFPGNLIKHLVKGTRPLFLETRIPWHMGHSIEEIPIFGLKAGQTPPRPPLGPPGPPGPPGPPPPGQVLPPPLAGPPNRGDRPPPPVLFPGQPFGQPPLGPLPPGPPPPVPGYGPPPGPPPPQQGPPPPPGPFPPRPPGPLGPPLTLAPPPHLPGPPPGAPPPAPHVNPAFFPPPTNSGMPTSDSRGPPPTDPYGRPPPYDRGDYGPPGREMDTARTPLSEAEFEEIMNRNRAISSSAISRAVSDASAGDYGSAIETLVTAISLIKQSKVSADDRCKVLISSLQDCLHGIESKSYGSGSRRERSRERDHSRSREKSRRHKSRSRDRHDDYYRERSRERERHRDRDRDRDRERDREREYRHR
Experimental: as §1, §2

[5] = biological target: T5, KHDRBS1 (human, UniProt Q07666 1-443)
T5 construct: Identified by mass spectrometry in the co-IP; also called NP_006550.1
Experimental: as §1, §2

[6] = biological target: T6, VIM (human, UniProt P08670 2-466)
T6 construct: Identified by mass spectrometry in the co-IP; also called NP_003371.2
Experimental: as §1, §2

[7] = biological target: T7, TAF15 (human, UniProt Q92804-2 1-589, limits assumed)
T7 construct: Identified by mass spectrometry in the co-IP; also called NP_003478.1 (+1)
Experimental: as §1, §2

T3 sequence (Q13347 whole entry): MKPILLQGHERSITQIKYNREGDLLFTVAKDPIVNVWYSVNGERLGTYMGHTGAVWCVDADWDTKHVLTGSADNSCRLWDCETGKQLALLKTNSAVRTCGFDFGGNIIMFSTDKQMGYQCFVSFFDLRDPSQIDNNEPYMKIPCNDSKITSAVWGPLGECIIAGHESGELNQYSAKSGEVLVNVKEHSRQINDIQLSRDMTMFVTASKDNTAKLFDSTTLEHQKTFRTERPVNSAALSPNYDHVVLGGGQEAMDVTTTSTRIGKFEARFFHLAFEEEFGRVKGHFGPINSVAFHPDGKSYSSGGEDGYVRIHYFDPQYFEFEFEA
T1 sequence (Q9Y5B9 2-1047 limits assumed): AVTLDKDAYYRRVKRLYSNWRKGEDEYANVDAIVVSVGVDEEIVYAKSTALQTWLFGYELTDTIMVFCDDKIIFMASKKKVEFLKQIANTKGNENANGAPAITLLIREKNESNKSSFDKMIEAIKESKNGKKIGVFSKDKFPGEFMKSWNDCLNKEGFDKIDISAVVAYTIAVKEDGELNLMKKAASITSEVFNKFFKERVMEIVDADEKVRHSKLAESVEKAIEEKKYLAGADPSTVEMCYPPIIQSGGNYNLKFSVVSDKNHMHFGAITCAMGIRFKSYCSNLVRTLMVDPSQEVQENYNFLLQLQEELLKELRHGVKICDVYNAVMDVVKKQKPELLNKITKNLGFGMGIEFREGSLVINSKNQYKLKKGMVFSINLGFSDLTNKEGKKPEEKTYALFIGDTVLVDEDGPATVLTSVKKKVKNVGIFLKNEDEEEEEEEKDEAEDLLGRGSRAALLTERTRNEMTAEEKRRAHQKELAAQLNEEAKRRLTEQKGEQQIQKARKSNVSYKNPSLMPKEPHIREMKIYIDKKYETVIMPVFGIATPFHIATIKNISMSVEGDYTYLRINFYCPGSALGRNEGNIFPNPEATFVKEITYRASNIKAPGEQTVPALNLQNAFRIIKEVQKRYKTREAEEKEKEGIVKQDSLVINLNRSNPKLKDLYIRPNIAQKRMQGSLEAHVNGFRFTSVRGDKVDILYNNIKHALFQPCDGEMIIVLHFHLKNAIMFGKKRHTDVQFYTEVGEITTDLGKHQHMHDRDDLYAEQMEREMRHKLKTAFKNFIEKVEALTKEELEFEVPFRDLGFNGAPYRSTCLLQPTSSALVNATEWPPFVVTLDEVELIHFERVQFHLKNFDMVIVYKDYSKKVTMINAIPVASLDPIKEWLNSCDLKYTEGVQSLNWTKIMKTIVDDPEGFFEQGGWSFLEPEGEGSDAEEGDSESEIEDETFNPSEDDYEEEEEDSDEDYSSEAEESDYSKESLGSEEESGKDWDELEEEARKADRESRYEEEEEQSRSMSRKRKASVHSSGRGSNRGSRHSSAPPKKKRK
T7 sequence (Q92804 other isoform, or with tags, fused parts or gaps limits assumed): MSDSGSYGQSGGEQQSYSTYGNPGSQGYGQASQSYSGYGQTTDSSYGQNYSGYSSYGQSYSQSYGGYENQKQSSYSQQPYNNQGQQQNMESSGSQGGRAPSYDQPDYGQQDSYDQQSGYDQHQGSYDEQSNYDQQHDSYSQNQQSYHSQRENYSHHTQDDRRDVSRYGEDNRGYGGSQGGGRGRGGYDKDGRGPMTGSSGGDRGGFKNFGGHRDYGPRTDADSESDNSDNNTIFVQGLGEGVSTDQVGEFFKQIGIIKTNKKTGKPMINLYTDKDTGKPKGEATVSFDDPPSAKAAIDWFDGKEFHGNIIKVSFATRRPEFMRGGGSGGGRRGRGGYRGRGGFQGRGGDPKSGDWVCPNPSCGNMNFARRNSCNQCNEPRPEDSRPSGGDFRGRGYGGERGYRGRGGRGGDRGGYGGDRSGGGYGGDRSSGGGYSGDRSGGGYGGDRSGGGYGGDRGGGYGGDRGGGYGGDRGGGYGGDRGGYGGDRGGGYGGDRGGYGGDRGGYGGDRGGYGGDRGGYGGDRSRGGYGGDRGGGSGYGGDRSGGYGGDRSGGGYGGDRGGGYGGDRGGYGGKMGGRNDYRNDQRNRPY
T6 sequence (P08670 2-466 limits assumed): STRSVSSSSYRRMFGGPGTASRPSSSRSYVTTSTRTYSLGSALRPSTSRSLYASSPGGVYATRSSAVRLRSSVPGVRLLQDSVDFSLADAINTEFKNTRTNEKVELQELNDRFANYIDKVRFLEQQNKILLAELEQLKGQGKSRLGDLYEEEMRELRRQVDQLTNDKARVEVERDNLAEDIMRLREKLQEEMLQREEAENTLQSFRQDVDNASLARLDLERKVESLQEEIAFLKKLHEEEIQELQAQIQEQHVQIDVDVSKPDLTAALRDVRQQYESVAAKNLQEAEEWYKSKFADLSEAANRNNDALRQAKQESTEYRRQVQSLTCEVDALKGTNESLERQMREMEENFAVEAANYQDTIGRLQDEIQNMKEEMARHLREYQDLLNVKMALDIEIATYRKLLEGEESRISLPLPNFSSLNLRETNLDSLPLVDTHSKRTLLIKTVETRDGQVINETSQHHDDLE
T5 sequence (Q07666 whole entry): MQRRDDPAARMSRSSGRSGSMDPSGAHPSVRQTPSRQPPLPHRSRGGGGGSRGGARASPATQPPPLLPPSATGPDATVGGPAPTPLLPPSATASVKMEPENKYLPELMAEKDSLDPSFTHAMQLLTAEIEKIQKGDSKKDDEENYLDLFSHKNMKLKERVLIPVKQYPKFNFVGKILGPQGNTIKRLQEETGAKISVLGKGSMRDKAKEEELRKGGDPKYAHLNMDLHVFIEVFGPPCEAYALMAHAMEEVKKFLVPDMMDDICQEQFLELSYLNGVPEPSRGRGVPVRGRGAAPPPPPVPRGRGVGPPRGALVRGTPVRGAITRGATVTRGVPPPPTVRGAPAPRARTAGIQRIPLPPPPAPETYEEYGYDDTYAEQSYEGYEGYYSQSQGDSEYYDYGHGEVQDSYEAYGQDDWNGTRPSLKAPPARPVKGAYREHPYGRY

co-IP mass spectrometry count (N-term FLAG) [1]: 0
co-IP mass spectrometry count (N-term FLAG) [2]: 0
co-IP mass spectrometry count (N-term FLAG) [3]: 0
co-IP mass spectrometry count (N-term FLAG) [4]: 30
co-IP mass spectrometry count (N-term FLAG) [5]: 9
co-IP mass spectrometry count (N-term FLAG) [6]: 402
co-IP mass spectrometry count (N-term FLAG) [7]: 5
B1: N-terminal FLAG tagged B3GNT2 (enzyme, human, UniProt Q9NY97 1-397, looked up)
chain: MSVGRRRIKLLGILMMANVFIYFIMEVSKSSSQEKNGKGEVIIPKEKFWKISTPPEAYWNREQEKLNRQYNPILSMLTNQTGEAGRLSNISHLNYCEPDLRVTSVVTGFNNLPDRFKDFLLYLRCRNYSLLIDQPDKCAKKPFLLLAIKSLTPHFARRQAIRESWGQESNAGNQTVVRVFLLGQTPPEDNHPDLSDMLKFESEKHQDILMWNYRDTFFNLSLKEVLFLRWVSTSCPDTEFVFKGDDDVFVNTHHILNYLNSLSKTKAKDLFIGDVIHNAGPHRDKKLKYYIPEVVYSGLYPPYAGGGGFLYSGHLALRLYHITDQVHLYPIDDVYTGMCLQKLGLVPEKHKGFRTFDIEEKNKNNICSYVDLMLVHSRKPQEMIDIWSQLQSAHLKC
notes: FLAG-tagged ORF overexpressed in A375 cells; bait of the co-IP with mouse anti-FLAG; also called N-FLAG B3GNT2; N-term FLAG; not shown: N-terminal FLAG tag
